From patent US20240024477A1 come the findings set out here.

The target of this assay is HLA-E bound RL9 presented on cells with their own HLA-E (RL9 pulsed autologous B cells (human; HIV-1) (UniProt P13747). The assay can be described thus: cell-based or functional assay.

Turning to “irrelevant TCR specific for HLAA*0201-NY-ESO-1157-165 (…) (IG4), transduced into CD8 T cells”, the reduction of % p24+ cells, HIV-1 NL4.3-infected primary CD4+ T cells, E:T 5:1 stood at 23.5%.
